Earlier results in article PMC8894612.

Target: Regnase-1 (UniProt Q5D1E7)
Assay: Biacore SPR

UniProt Q5D1E7, sequence (Q5D1E7 whole entry): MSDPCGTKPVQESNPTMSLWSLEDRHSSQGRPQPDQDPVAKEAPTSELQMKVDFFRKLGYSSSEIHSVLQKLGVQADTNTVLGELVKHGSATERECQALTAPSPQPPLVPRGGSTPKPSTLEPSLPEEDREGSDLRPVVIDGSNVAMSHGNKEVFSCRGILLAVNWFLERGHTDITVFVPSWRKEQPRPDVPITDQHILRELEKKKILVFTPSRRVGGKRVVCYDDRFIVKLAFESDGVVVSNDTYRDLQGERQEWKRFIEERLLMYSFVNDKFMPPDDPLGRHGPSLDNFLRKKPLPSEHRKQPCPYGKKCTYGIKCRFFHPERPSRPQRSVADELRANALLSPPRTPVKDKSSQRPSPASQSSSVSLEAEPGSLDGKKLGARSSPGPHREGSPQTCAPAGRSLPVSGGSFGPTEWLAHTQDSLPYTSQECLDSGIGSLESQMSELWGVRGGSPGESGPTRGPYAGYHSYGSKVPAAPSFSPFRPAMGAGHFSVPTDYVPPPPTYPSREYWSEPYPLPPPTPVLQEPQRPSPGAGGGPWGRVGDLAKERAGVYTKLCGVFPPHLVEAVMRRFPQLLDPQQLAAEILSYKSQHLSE

**Q.** For Roquin-1 (from UniProt Q4VGL6), which Kd is on record?
**A.** The Kd was 0.417 µM.
